According to patent US20070081991A1, “Compositions and methods for modulation of immune responses” (Pepgen Corporation, priority 2001, published 2007):
“Also recorded” adds a separate entry of the source. Marks after values point to notes of the source that are not given here.

Columns and labels:
HLA-E [1] = target: T1, HLA-E (Homo sapiens, UniProt P13747); assay: Peptide competition with B7sp in cytotoxic assay on K562-E*01033 cells; assay type: cell-based; settings: 0.1 μM B7sp together with increasing concentrations of competing peptide; effector Nishi
T1 construct: HLA-E*0101 and HLA-E*01033 cDNA encoding plasmids (pcDNA3) were provided by Drs; M. Ullbrecht and E. Weiss; expressed in transfected cells; host or cells: K562
Procedure: (§1) K562-E*01033 cells were incubated with the different peptides at 26° C. for 15-20 hours, and then tested in 2 h 51Cr release assays. In order to ensure that the levels of HLA-E with a protective peptide, and not the HLA-E levels as such, provided the protective capacity we kept the non-protective peptides, but omitted the B7sp, during the assays. (a) Killing of K562-E*01033 cells by NKL (left) or Nishi (right) after incubation with […], 300 mM hsp60sp, or 30 mM B7sp. 50 mM of P18I10 control peptide and hsp60sp was also included during the assays. Data from an E:T ratio of 30:1 is shown. The figure represents the mean of at least three experiments. Error bars indicate standard error of the mean. (b) Killing of K562-E*01033 cells by NKL (left panel) or Nishi (right panel) incubated over night with 30 mM 7sp, 300 mM P18I10 (pCtrl), 300 mM B7 R5V, 300 mM hsp60sp, or 300 mM hsp60 V5R. 50 mM of all peptides, except B7sp, were included during the assay. Peptide concentrations were chosen according to FIG. 5c. The figure represents the mean of at least three experiments. Error bars indicate standard error of the mean. (c) HLA-E cell surface expression by K562-E*01033 after the assay. A cold target preparation was prepared in parallel as in (a) and (b), and then stained with DX17 mAb (anti-HLA class I), followed by RPE-conjugated goat-anti-mouse IgG. One representative example out of more than 5 is shown. Note that, as in (a) and (b), 50 mM of all peptides, except for B7sp, was present during the time of the assay, explaining the lower HLA-E expression with B7sp compared to Hsp60sp, Hsp60 V5R and B7 R5V. (d) Killing of K562-E*01033 cells by Nishi after incubation for 30 min at room temperature with 0.1 mM B7sp and increasing amounts of competing peptides (hsp60sp, hsp60.4, B7 R5V and P18I10). All the peptides were kept throughout the assay
Briefly, K562-E*01033 cells were incubated with 0.1 μM B7sp together with increasing concentrations of competing peptides and tested in cytotoxic assays.

HLA-E [2] = assay: HLA-E stabilization assay (cell surface expression by flow cytometry); assay type: cell-based, human; settings: overnight incubation with peptide at 26° C.
Procedure: Synthetic peptides, purchased from Research Genetics, were dissolved in PBS. The peptides used were B7sp ([…]) (SEC ID NO: 3), hsp60sp ([…]) (SEC ID NO: 2), B7 R5V ([…]) (SEC ID NO: 14), hsp60 V5R ([…]) ([…]), and P18I10 ([…]) (SEC ID NO: 113) (all from Research Genetics, Huntsville, Ala.). Cells and their HLA-E transfected derivatives were incubated with synthetic peptides (3-300 μM) at 26° C. for 15-20 hours in serum-free AIM-V medium (GibcoBRL, Paisley Scotland) at a concentration of 1-3.10^6 cells/ml. Cells were then harvested, washed in PBS, stained with mAbs and analyzed by flow cytometry. Cells were subjected to stress by allowing them to grow at increasing cell density.
To test whether the hsp60-derived peptides were able to bind HLA-E, stabilized HLA-E cell surface expression was stabilized with the different synthetic peptides, by overnight incubation at 26° C. For this purpose MHC class I-deficient cell lines such as 721.221 (which lack HLA-A, -B, -C, and -G, but express HLA-E and -F intracellularly), as well as K562 cells transfected with HLA-E*01033 (K562-E*01033) or HLA-E*0101 were employed. The 721.221 cells and HLA-E transfected, but not untransfected, K562 cells express low levels of HLA-E at the cell surface during normal cell growth.

Qa-1^b = target: T2, Qa-1^b (Mus musculus, UniProt P06339); settings: cited from earlier work
T2 sequence (P06339 21-357): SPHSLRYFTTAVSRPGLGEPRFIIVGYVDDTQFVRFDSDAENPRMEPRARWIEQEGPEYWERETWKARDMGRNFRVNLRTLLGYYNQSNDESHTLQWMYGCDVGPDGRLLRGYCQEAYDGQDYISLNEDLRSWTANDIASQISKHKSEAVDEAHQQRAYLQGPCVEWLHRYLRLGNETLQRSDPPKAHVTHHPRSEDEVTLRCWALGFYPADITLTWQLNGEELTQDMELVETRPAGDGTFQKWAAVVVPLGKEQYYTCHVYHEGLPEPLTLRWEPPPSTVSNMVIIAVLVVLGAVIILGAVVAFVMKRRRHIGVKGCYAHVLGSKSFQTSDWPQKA
T2 sequence (P01887 21-119 partner): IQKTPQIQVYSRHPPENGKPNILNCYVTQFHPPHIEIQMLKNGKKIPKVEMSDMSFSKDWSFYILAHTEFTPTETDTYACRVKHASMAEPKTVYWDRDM

[3] = mice; cited from earlier work
[4] = test system: CD94/NKG2A+ NK cell lines Nishi and NKL; assay: NK cell-mediated cytotoxicity, 2 h 51Cr release, peptide-loaded K562-E*01033 targets; assay type: cell-based, human; settings: targets incubated overnight at 26° C. with peptide; effectors NKL and Nishi
Procedure: as §1
NK cell-mediated cytotoxicity was measured using a 2 hours standard ^51Cr radioisotope release assay. Briefly, target cells were incubated for 15-20 hours at 26° C. with the various peptides at concentrations ranging from 1-300 μM, and then labeled with ^51Cr. Peptides were washed away prior to setting up the assays, except in some experiments where the non-protective hsp60sp, B7 R5V and hsp60 V5R was kept throughout the assay to assure higher levels of HLA-E expression, as compared to targets incubated with the protective B7sp. In mAb blocking experiments, cells were preincubated with mouse serum, or an irrelevant isotype matched antibody to block Fc-receptors. Blocking of either target or effector cells with mAbs was performed at 4° C., and the antibodies were also included during the assays. […]

CD94/NKG2A+ NK cells = settings: peptide presented by Qa-1^b; cited from earlier work
HLA-E [5] = assay: HLA-E stabilization assay (cell surface expression by flow cytometry); assay type: cell-based, human; settings: at 37° C.
[6] = target: T3, HLA-E on cells, allele not told (human, UniProt P13747 22-358; P61769 21-119); assay: HLA-E surface stabilisation with synthetic peptide overnight at 26 C, flow cytometry
T3 construct: whole, on cells
Procedure: (§2) Synthetic peptides, purchased from Research Genetics, were dissolved in PBS. […] Cells and their HLA-E transfected derivatives were incubated with synthetic peptides (3-300 μM) at 26° C. for 15-20 hours in serum-free AIM-V medium (GibcoBRL, Paisley Scotland) at a concentration of 1-3.10⁶ cells/ml. Cells were then harvested, washed in PBS, stained with mAbs and analyzed by flow cytometry. Cells were subjected to stress by allowing them to grow at increasing cell density.

[7] = target: T4, HLA-E*01033 on transfected K562 cells (K562-E*01033) (human); assay: HLA-E surface stabilisation on transfected K562 cells, synthetic peptide overnight at 26 C, flow cytometry
T4 construct: whole, on cells; MHC class I molecule that takes up added peptide in the 26 C stabilisation assay
Procedure: as §2

[8] = target: T4, HLA-E*01033 on transfected K562 cells …; assay: HLA-E surface stabilisation on K562-E*01033 cells, DX17 staining, flow cytometry
Procedure: as §2

[9] = target: T3, HLA-E on cells, allele not told; assay: summary of the examples
[10] = target: T4, HLA-E*01033 on transfected K562 cells …; assay: HLA-E surface expression on K562-E*01033 cells after the cytotoxic assay, DX17 staining, flow cytometry
[11] = target: T3, HLA-E on cells, allele not told; assay: HLA-E surface stabilisation on transfected K562 and 721.221 cells, flow cytometry
Procedure: as §2

[12] = K562 cells transfected with HLA-E*01033 or HLA-E*0101

Molecule: RGPGRAFVTI [P18I10, reference compound]
- competition with B7sp (loss of HLA-E mediated protection from killing) (HLA-E [1]): remained protected from killing at all concentrations tested

Molecule: VMLAVDAVI [hsp60.3, human hsp60 residues 144-152]
- HLA-E cell surface expression (stabilization) (HLA-E [2]; [12]): HLA-E stabilization was not observed

Molecule: AMAPRTLLL [qdm, reference compound]
- binding to Qa-1^b (Qa-1^b): known to form relatively stable Qa-1b/peptide complex

Molecule: CN(C(=O)c1c(O)c2ccccc2n(C)c1=O)c1ccccc1 [linomide]
- protection from developing EAE [3]: can protect mice from developing disease

Molecule: QMRPRSRVL [hsp60 V5R, hsp60sp with valine to arginine at position 5]
- protection of K562-E*01033 cells from killing by NK cells [4]: not sufficient to restore protection from killing

Molecule: GMKFDRGYI [hsp60.4, human hsp60 residues 216-224]
- HLA-E cell surface expression (stabilization) (HLA-E [2]; 721.221 cells): capable of stabilizing HLA-E molecules
- HLA-E cell surface expression (stabilization) (HLA-E [2]; [12]): capable of stabilizing HLA-E molecules; also recorded: can bind to HLA-E
- competition with B7sp (loss of HLA-E mediated protection from killing) (HLA-E [1]): not able to compete with B7sp; also recorded: could not compete with the B7sp for binding to HLA-E
- protection from CD94/NKG2A+ NK cells (CD94/NKG2A+ NK cells): did not induce protection from CD94/NKG2A^+ NK cells; also recorded: fail to protect the cells from NK cell mediated lysis
- binding to Qa-1^b (Qa-1^b): bind to mouse Qa-1^b molecules; also recorded: could bind to Qa-1^b; also recorded: binds to Qa-1^b
- competition with Qdm-peptide for binding to Qa-1^b (Qa-1^b; even when mixed in 100,000-fold excess with 1 mM Qdm): failed to compete with the protective Qdm-peptide for binding to Qa-1^b; also recorded: nor could it reportedly compete for binding to Qa-1^b

Molecule: VMAPVTVLL [B7 R5V, B7sp with arginine to valine at position 5]
- HLA-E cell surface expression (stabilization) (HLA-E [2]; [12]): expressed high levels of HLA-E
- competition with B7sp (loss of HLA-E mediated protection from killing) (HLA-E [1]): even stronger competitor than hsp60sp
- protection of K562-E*01033 cells from killing by NK cells [4]: efficiently killed by CD94/NKG2A^+ NK cells

Molecule: QMRPVSRVL [hsp60sp]
- HLA-E cell surface expression (stabilization) (HLA-E [2]; [12]): substantial increase in HLA-E expression; also recorded: stabilization of HLA-E
- competition with B7sp (loss of HLA-E mediated protection from killing) (HLA-E [1]): could interfere with HLA-E mediated protection by competing with MHC class I signal peptides; also recorded: became more susceptible to killing with increasing concentrations of hsp60sp
- protection of K562-E*01033 cells from killing by NK cells [4]: did not result in any significant protection; also recorded: fails to protect K562-E*01033 cells from killing by NK cells
- dissociation of HLA-E/peptide complexes (HLA-E [5]): dissociated faster than the HLA-E/B7sp

Molecule: L MLQGVDLL (N-terminal Leu) [hsp60.2, human hsp60 residues 39-47]
- HLA-E cell surface expression (stabilization) (HLA-E [2]; [12]): HLA-E stabilization was not observed

Molecule: LMLQGVDLL [hsp60.2 peptide (LMLQGVDLL)]
- binding result [6]: no binding

Molecule: VMAPRTVLL (also called B7 signal peptide) [B7sp (VMAPRTVLL), peptide from the leader sequence of HLA-B*0701]
- binding result [7]: binds

Molecule: VMAPVTVLL [B7 R5V (VMAPVTVLL)]
- binding result [8]: binds

Molecule: VMLAVDAVI [hsp60.3 peptide (VMLAVDAVI)]
- binding result [6]: no binding

B1: hsp60sp (QMRPVSRVL), nonamer from the signal sequence of human hsp60 (peptide)
peptide: QMRPVSRVL
notes: Synthetic peptide (Research Genetics); also called hsp60 signal peptide; hsp60 leader peptide
- binding result [9]: binds
- binding result [7]: binds

Molecule: QMRPRSRVL [hsp60 V5R (QMRPRSRVL)]
- binding result [10]: binds

Molecule: GMKFDRGYI [hsp60.4 peptide (GMKFDRGYI)]
- binding result [11]: binds
